We go through three molecules from patent US20090137002A1 (published 2009).

B1: MOR03639 Fab (Fab, V domains shown)
VH: QVQLVESGGGLVQPGGSLRLSCAASGFTFSNYYLHWVRQAPGKGLEWVSGISYSGSSTYYADSVKGRFTISRDNSKNTLYLQMNSLRAEDTAVYYCARFYQRRQIPHGYDVWGQGTLVTVSS
VL: DIELTQPPSVSVAPGQTARISCSGDNIGDYYVHWYQQKPGQAPVLVIYRDSNRPSGIPERFSGSNSGNTATLTISGTQAEDEADYYCGSYDMPFGGTVFGGGTKLTVLG
notes: Monomeric HuCAL Fab (VH3, lambda3), purified, MH-tagged
B2: MOR03641 Fab (Fab, V domains shown)
VH: QVQLVQSGAEVKKPGSSVKVSCKASGGTFSTYAISWVRQAPGQGLEWMGRIIPIFGTANYAQKFQGRVTITADESTSTAYMELSSLRSEDTAVYYCARSSYTILTTYYNYNAMDNWGQGTLVTVSS
VL: DIQMTQSPSSLSASVGDRVTITCRASQNINNFLNWYQQKPGKAPKLLIYGSSILQSGVPSRFSGSGSGTDFTLTISSLQPEDFAVYYCHQVSDTSDTFGQGTKVEIKR
notes: Monomeric HuCAL Fab (VH1A, kappa1), purified, MH-tagged; also called 3541 [sic]
B3: MOR03640 Fab (Fab, V domains shown)
VH: QVQLVESGGGLVQPGGSLRLSCAASGFTFNNSWMSWVRQAPGKGLEWVSNITSSSSMTHYADSVKGRFTISRDNSKNTLYLQMNSLRAEDTAVYYCARKGMSFYNNKYAKSMFDLWGQGTLVTVSS
VL: DIELTQPPSVSVAPGQTARISCSGDNLGKKYVHWYQQKPGQAPVLVIYYDSKRPSGIPERFSGSNSGNTATLTISGTQAEDEADYYCSAWTTTMMHIVFGGGTKLTVLG
notes: Monomeric HuCAL Fab, purified, MH-tagged

In one experiment the target is T1, recombinant murine EphB4-Fc fusion protein (mouse, UniProt P54761 16-539).
T1 construct: extracellular domain; also called mEphB4; mu EphB4; not shown: Fc part, not described
T1 sequence (looked up): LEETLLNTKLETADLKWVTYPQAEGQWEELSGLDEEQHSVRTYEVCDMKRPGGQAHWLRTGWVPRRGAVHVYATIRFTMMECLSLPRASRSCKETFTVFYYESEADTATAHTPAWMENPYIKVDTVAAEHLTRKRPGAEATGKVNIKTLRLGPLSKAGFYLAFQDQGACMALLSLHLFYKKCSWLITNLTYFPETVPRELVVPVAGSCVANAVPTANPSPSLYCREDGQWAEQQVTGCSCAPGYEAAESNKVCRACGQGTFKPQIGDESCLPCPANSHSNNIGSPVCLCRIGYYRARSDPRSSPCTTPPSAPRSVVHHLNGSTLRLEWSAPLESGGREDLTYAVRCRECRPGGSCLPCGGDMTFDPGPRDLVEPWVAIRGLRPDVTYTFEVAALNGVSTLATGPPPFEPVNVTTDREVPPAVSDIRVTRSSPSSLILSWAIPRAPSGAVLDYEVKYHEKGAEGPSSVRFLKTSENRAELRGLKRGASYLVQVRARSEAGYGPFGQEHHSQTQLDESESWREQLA
As to the kind of experiment: competition ELISA, Fab against EphrinB2-Fc on immobilized murine EphB4. As for the experimental part: (§1) IC₅₀ values were determined using recombinant antigen (murine and human EphB4) in an ELISA and on transfected cells in a FACS analysis (human EphB4 receptor).
(§2) Binding of (a fixed concentration of) the ligand EphrinB2-Fc to immobilized EphB4 receptor on an ELISA plate or on transfected cells is titrated with anti-EphB4 Fab. The IC₅₀ is determined as the amount of Fab at which the binding of EphrinB2 is inhibited by 50%.
Background: ELISA stands for enzyme-linked immunosorbent assay.
Regarding B1, the concentration for half-maximal inhibition (IC50) came to 22 mg/L.

Regarding B2, the IC50 is 24 mg/L.

For the molecule B3, the IC50 was determined as 117 mg/L.

Another experiment deals with T2, recombinant human EphB4-Fc fusion protein (human, UniProt P54760 16-539).
T2 construct: extracellular domain; also called hEphB4; hu EphB4-Fc
T2 sequence (looked up): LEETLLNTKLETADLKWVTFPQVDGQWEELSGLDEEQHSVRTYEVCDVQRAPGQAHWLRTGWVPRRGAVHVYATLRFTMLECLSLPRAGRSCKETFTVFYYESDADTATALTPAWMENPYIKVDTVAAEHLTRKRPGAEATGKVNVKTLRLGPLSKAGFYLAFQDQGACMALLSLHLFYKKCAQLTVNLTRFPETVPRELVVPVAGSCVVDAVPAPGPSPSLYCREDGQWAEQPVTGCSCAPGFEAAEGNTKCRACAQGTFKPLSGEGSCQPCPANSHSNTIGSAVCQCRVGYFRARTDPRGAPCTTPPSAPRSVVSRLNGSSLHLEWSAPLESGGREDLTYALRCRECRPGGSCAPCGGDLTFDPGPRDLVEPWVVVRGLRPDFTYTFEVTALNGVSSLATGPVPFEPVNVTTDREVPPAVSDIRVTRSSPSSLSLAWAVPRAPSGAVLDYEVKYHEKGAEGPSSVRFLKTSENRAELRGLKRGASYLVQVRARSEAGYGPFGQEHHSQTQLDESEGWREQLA
As to the kind of experiment: competition ELISA, Fab against EphrinB2-Fc on immobilized human EphB4. On the procedure: as §1, §2
In the case of B1, the IC50 is 65 mg/L.

As to B2, the IC50 stood at 5 mg/L.

Regarding B3, the half-inhibitory concentration (IC50) is 33 mg/L.

For a further experiment, the target named is T3, recombinant mouse EphB6 (mouse, UniProt O08644 33-591, limits assumed).
T3 construct: also called mEphB6
T3 sequence (looked up): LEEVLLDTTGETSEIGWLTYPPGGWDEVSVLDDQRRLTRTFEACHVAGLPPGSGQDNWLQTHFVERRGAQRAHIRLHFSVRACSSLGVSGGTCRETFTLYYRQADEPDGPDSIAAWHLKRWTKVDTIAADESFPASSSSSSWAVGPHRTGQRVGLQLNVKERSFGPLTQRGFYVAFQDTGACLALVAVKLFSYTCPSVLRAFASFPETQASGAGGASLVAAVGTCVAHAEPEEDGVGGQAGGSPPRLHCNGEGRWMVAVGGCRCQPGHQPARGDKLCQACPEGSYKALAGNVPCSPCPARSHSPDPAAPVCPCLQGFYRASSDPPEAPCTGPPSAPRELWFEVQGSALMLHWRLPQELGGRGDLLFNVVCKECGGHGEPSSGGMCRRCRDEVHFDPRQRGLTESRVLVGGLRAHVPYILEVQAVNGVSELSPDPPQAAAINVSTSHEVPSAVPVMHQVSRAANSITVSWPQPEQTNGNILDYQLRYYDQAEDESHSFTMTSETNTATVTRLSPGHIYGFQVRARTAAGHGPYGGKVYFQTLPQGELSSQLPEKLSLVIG
As to the kind of experiment: ELISA on coated receptor. As for the experimental part:
(§3) A 96-well plate was coated with recombinant mEphB1, -2, -3, -4, -6, mEphA4 and hEphB4 in PBS o/n at 4° C. (5 μg/mL; 100 μL/well). The next day, the antigen was discarded and the plate blocked with 3% BSA/PBS (300 μl/well) for 2 hrs at room temperature (RT). Blocking solution was discarded and anti-EphB4 Fabs were added to the wells at a concentration of 20 μg/mL in 1% BSA/PBS and incubated for 1 hr at RT. Fabs were discarded and the plate was washed 3× with PBS. Anti-human F(ab′)₂—HRP was added at a concentration recommended by the manufacturer in 1% BSA/PBS and incubated for 1 hr at RT. The plate was washed 3× with PBS and 100 μL/well chemifluorescent substrate was added. After development, fluorescence was measured in a fluorescence reader.
Regarding B1, the binding result is given as “no binding (tested: 20 µg/mL)”.

With B2, the binding result is “no binding (tested: 20 µg/mL)”.

As to B3, the binding result was “no binding (tested: 20 µg/mL)”.

For another experiment, the target named is T4, recombinant mouse EphB3-Fc fusion protein (mouse, UniProt P54754 30-537, limits assumed).
T4 construct: also called mEphB3; not shown: Fc part, not described
T4 sequence (looked up): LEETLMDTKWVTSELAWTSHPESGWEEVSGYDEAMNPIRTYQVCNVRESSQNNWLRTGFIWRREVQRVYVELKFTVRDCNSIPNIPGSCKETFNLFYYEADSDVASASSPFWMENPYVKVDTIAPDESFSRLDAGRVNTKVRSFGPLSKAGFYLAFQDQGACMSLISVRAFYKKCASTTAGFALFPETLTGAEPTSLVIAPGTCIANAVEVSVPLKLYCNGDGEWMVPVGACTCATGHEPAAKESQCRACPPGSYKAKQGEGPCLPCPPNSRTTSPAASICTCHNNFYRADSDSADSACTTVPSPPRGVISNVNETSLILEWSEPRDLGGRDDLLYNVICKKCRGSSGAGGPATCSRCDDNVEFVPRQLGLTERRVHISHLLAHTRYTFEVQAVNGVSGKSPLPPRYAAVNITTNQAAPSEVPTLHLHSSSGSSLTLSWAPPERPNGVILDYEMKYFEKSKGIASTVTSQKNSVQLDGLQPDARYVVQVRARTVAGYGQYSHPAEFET
As to the kind of experiment: ELISA on coated receptor. On the procedure: as §3
Regarding B1, the binding result is recorded as “no binding (tested: 20 µg/mL)”.

As to B2, the binding result was “no binding (tested: 20 µg/mL)”.

Regarding B3, the binding result was “no binding (tested: 20 µg/mL)”.

In general, IC50 refers to the concentration that gives 50% inhibition.
